We go through one molecule from patent publication US20140038900A1 (INSTITUT NATIONAL DE LA SANTE ET DE LA RECHERCHE MEDICALE …, published 2014).

This test has as its target heat-shock protein 70 (HSP70) (UniProt P0DMV8 1-641). Put plainly: co-immunoprecipitation and Western blot, HCT116 cells. The protocol: Transfected cells were first lysed in lysis buffer (50 mM Hepes (pH 7.6), 150 mM NaCl, 5 mM EDTA and 0.1% NP40) followed by immunoprecipitation using GFP-tag antibody. Immunoprecipitates were separated in a 10% SDS-polyacrylamide gel and then transferred to PVDF membranes using a wet transfer apparatus (BioRad, Hercules, Calif., USA). Membranes were first probed overnight using primary antibodies: HA-tag antibody was from Covance (Eurogentec, Angers, France), 14-3-3 from Santa-Cruz (TebuBio, Le Perray en Yvelines, France) and GFP-tag antibody from Millipore (Molsheim, France).

Sequence of heat-shock protein 70 (HSP70) (P0DMV8 whole entry): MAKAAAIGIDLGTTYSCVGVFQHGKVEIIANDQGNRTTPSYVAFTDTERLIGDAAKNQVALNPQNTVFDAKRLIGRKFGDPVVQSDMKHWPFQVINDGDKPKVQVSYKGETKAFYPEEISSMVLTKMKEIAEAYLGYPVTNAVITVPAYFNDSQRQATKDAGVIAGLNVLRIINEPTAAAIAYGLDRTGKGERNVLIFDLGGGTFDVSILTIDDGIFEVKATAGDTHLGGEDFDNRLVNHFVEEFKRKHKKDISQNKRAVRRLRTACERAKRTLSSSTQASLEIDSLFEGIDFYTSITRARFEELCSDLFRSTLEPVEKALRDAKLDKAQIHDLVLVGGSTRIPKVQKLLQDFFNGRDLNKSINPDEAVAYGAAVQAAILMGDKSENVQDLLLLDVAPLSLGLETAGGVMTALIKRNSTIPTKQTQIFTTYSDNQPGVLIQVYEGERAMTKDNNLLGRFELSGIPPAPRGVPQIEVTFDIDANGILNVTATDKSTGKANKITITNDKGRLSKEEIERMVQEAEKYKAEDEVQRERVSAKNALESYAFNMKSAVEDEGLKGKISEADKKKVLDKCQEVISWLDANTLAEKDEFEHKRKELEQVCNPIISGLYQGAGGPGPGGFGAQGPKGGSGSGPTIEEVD

B1: mutated HSP110 lacking exon 9 (HSP110delE9), GFP-tagged (other)
chain: MSVVGLDVGSQSCYIAVARAGGIETIANEFSDRCTPSVISFGSKNRTIGVAAKNQQITHANNTVSNFKRFHGRAFNDPFIQKEKENLSYDLVPLKNGGVGIKVMYMGEEHLFSVEQITAMLLTKLKETAENSLKKPVTDCVISVPSFFTDAERRSVLDAAQIVGLNCLRLMNDMTAVALNYGIYKQDLPSLDEKPRIVVFVDMGHSAFQVSACAFNKGKLKVLGTAFDPFLGGKNFDEKLVEHFCAEFKTKYKLDAKSKIRALLRLYQECEKLKKLMSSNSTDLPLNIECFMNDKDVSGKMNRSQFEELCAELLQKIEVPLYSLLEQTHLKVEDVSAVEIVGGATRIPAVKERIAKFFGKDISTTLNADEAVARGCALQC
notes: Made by PCR from the GFP-HSP110 vector and cloned into the EGFp C2 vector; also called HSP110deIE9; HSP110ΔE9; not shown: GFP tag from the EGFp C2 vector into which the mutant HSP110 cDNA was cloned
Turning to B1, the binding result is listed as “no binding”.
